Reference: the MegaScale stability set (Tsuboyama et al. 2023)

B1: EEHEE_rd4_0469 (parent)
chain: ITIHVNGVTYHFDNPEEAEKFAQKMAKTYQLKMEIHNGEFHME

Variants of: B1
Experiment: folding stability dG (cDNA display proteolysis); higher = more stable
Conditions: PBS, room temperature

Folding stability dG [kcal/mol] of substitutions, site by site:
Y29: K 0.768; R 0.657; D 1.59; F 0.965; I 0.788; S 1.05; V 0.848; P 1.7; A 1.07; E 1.6; L 1.17
E16: Y 1.19; D 1.25; V 1.18; I 1.18; R 1.21; G 1.02; M 1.15; T 1.09; Q 1.1; H 1.14; C 1.77; N 1.03; P 0.698; A 1.12; K 1.18; L 1.19; S 1.12; W 1.16; F 1.2
E17: M 1.07; S 1.15; C 1.81; R 1.07; I 1.09; L 1.19; H 0.948; G 0.714; V 1.02; D 1.06; Y 0.867; K 1.14; A 1.15; N 0.912; Q 1.03; T 1.07; P 0.444; F 0.96; W 1.01
K27: F 1.25; E 1.51; P 1.22; I 1.34; Q 1.24; N 0.922; H 0.969; R 1.09; V 1.22; M 1.22; T 1.02; D 1.5; A 1.32; L 1.34; G 0.713; Y 1.27; W 1.38; S 1
A26: K 1.01; S 1.04; D 0.963; E 1.12; H 0.851; T 0.708; I 1.31; L 1.25; F 1.19; R 1.1; W 1.63; V 0.794; M 1.46; N 0.766; P 0.076; G 0.919; Y 1.45; Q 0.97
M25: T 0.301; F 0.692; Y 0.664; D -0.066; K -0.083; A 0.464; V 0.732; G -0.244; L 1.12; H 0.288; I 0.968; C 1.66; W 1.07; P -0.979; R 0.041; N 0.081; S 0.059; E 0.109; Q 0.418
F21: K -0.758; H 0.061; C 1.38; N -0.383; V 0.092; W 1.2; Q -0.188; R -0.383; L 0.173; A 0.133; D -0.653; T -0.122; M 0.206; Y 0.564; E -0.052; G -0.582; S -0.647; I 0.089
E19: A 1.35; W 1.82; N 1.32; G 1.03; Y 1.6; Q 1.26; R 1.41; M 1.61; H 1.38; D 1.07; V 1.47; S 1.16; T 1.3; P -0.375; I 1.5; L 1.61; F 1.63; K 1.27
A22: L 0.879; W 0.941; Y 1.01; S 0.704; H 0.587; V 1.4; D -0.261; I 1.46; M 1.19; G 0.3; N 0.367; T 0.747; C 1.76; F 0.747; E 0.335; R 1.06; Q 0.662; K 0.843
Q30: A 1.02; K 1.12; L 0.853; G 1.5; H 1.43; D 1.08; E 1.21; F 1.14; I 0.708
